The target of experiment [1] is SARS-CoV-2 RBD (Wuhan-1) (SARS-CoV-2, Wuhan-1) (UniProt P0DTC2). Nature of the experiment: SPR.
The target is the same in experiment [2]. Nature of the experiment: SPR. The source holds these as a separate data set.

pKd: −log10 of the molar value. Where two headings read alike, the source gives them in different places.

On to CC12.1 (antibody), for which, in experiment [1], the pKd (commonly the negative decadic logarithm of the Kd, by convention in mol/L) was 8.23; the koff (in general, the first-order rate constant of dissociation) was 0.00412 s⁻¹; the kon (commonly the second-order rate constant of association) was determined as 695000 M⁻¹ s⁻¹. The same substance showed a kon in experiment [2] of 696000 M⁻¹ s⁻¹.

The values above are taken from article PMC9367177.
